According to US20140227188:

Test system: T1, Cathepsin E-activatable 5-ALA prodrug, H-Arg-Gln-Ala-Gly-Phe-Ser-Leu-5-ALA-OH
T1 sequence: RQAGFSL

| Substance | proteolytic cleavage of the prodrug, LC-MS (50 pmol and 100 pmol enzyme) | proteolytic cleavage of the prodrug, fragments identified by LC-MS (50 pmol enzyme) |
| --- | --- | --- |
| Cathepsin D (purified proteolytic enzyme) | A higher concentration of Cath B and D (100 pmol) showed no sign of cleavage of the 5-ALA prodrug at the link between 5-ALA and the rest of the peptide substrate |  |
| Cathepsin B (purified proteolytic enzyme) | A higher concentration of Cath B and D (100 pmol) showed no sign of cleavage of the 5-ALA prodrug at the link between 5-ALA and the rest of the peptide substrate |  |
| Cathepsin E (purified proteolytic enzyme) |  | Cath E was the only tested protease capable of cleaving the 5-ALA prodrug to two major metabolic fragments |
